Measured values as given in the supplement of paper PMC12764529.
± gives the half width of the 95% confidence interval.

Experiments:
[1] = folding stability dG unfold from chymotrypsin proteolysis; higher = more stable
Method in brief: (§1)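 Designed mini-proteins with no cysteine and under 80 residues were kept only if AlphaFold2 dimer inter-PAE was above 15. In a PA-tagged cDNA display construct, they were digested with trypsin and chymotrypsin and then sequenced. K50 was inferred by Bayesian fitting of counts, and unfolding free energy was derived per protease or combined against a sequence-predicted unfolded-state K50 and a shared folded-state K50.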

[2] = folding stability dG unfold (combined trypsin and chymotrypsin); higher = more stable
Method in brief: as §1

## SAGGSAGGSRWRVSFEGPNGGTQEHDIPVPPGEPVDLDEILDEFKEAHPGGPPRPIKIERPDPSAGGSAGGS [r12_262_TrROS]
[1]
  folding stability dG unfold: 0.232 ± 0.28 kcal/mol
[2]
  folding stability dG unfold: -0.651 ± 0.33 kcal/mol

## SAGGSAGGSSGLTLLEETEISPGPPVPAIPATLPVKVDGKTVPLPITLTPEELAALRAELLRRSAGGSAGGS [r20_148_JUSTAS]
[1]
  folding stability dG unfold: 0.893 ± 0.088 kcal/mol
[2]
  folding stability dG unfold: 0.364 ± 0.093 kcal/mol

## SAGGSAGGSSPKAQRLQDRIRQEFPPNEIDKVEMSGDKIVIHGRPGYRQRIQEELGLKNIEIVSAGGSAGGS [r12_748_TrROS]
[1]
  folding stability dG unfold: 0.344 ± 0.098 kcal/mol
[2]
  folding stability dG unfold: 0.0708 ± 0.13 kcal/mol

## SAGGSAGGSSSRFEAIKKKILDAFPEDVIKEVKKGPGKIYVVGKPEYIKEIKKLTGSKDIIINSAGGSAGGS [r12_748_JUSTAS]
[1]
  folding stability dG unfold: -0.559 ± 0.36 kcal/mol
[2]
  folding stability dG unfold: -0.606 ± 0.34 kcal/mol

## SAGGSAGGSSTLSVELPDFTGSAADVLAALRAAFPDPALVLDGVEVRPLGADRPGWRVELAVASAGGSAGGS [r12_348_JUSTAS]
[1]
  folding stability dG unfold: 0.958 ± 0.091 kcal/mol
[2]
  folding stability dG unfold: 0.499 ± 0.078 kcal/mol

## SAGGSAGGSTITGRFESPEGINELANEFPGVEIFEDPENNWIYVEIEIKPPPPPPPEDQKNNKSAGGSAGGS [r20_191_TrROS]
[1]
  folding stability dG unfold: 0.916 ± 0.078 kcal/mol
[2]
  folding stability dG unfold: 0.35 ± 0.3 kcal/mol

## SAGGSAGGSTTMTLTITEYTNDPEGGVKKKKSTTESTVSPEEVEKVAEEVKKKSKNVKVTVNSSAGGSAGGS [r12_342_JUSTAS]
[1]
  folding stability dG unfold: -0.315 ± 0.29 kcal/mol
[2]
  folding stability dG unfold: -0.775 ± 0.23 kcal/mol

## SAGGSAGGYRITIKDPDGVKIEIWQGPNGMMPIKVENPNGKKRERMVNGPPGDIEDFLKELLKQSAGGSAGG [r6_27_TrROS]
[1]
  folding stability dG unfold: 0.378 ± 0.31 kcal/mol
[2]
  folding stability dG unfold: -0.125 ± 0.59 kcal/mol

## SAGGSAGHMIEKVTTTSPDNTTTTVSLTPPDAPLDIKLPNGASATQTPLPGGRLRVTTTTTTPAAASAGGSA [r15_523_JUSTAS]
[1]
  folding stability dG unfold: 0.841 ± 0.062 kcal/mol
[2]
  folding stability dG unfold: 0.338 ± 0.21 kcal/mol

## SAGGSAGMPTTVFLTRPGPRAITMRTDPVSGTVTFTLPSGEVTTTPLSTVKELKVPPDIATVTILASAGGSA [r15_1043_JUSTAS]
[1]
  folding stability dG unfold: -0.365 ± 0.29 kcal/mol
[2]
  folding stability dG unfold: -0.609 ± 0.24 kcal/mol

## SAGGSAKIEIEWNPENGMVRVKAEYPNDGKKKEHTFNPGDSPKQLADDINQEFKKPVEIDEIEWYPSAGGSA [r15_544_TrROS]
[1]
  folding stability dG unfold: 0.683 ± 0.04 kcal/mol
[2]
  folding stability dG unfold: 0.153 ± 0.44 kcal/mol

## SAGGSAKLPPGQRVRLEIEHPAHGWTHEHTFPIKSVEEFKQSLEIPMPNPNGEPMPMRVKILDVEKSAGGSA [r15_797_TrROS]
[1]
  folding stability dG unfold: -0.363 ± 0.48 kcal/mol
[2]
  folding stability dG unfold: < -1 kcal/mol

## SAGGSALPPGQKIKMKFPDDGKKMTITFNPGQNNIEIENDGKKETYPFDSVEDLLDEFGWKVLDIESAGGSA [r15_500_TrROS]
[1]
  folding stability dG unfold: 0.465 ± 0.073 kcal/mol
[2]
  folding stability dG unfold: -0.0488 ± 0.19 kcal/mol

## SAGGSALTAKEARELVRNYAREHNPDYKVKGIEVERLPDKWVHADIEVRPPENPGQEHEWSIWIPYSAGGSA [r15_627_TrROS]
[1]
  folding stability dG unfold: -0.418 ± 0.33 kcal/mol
[2]
  folding stability dG unfold: -0.986 ± 0.31 kcal/mol

## SAGGSAMIEVRTVAGEPVEVTPIPEDEVLVARTPGGRKAPFLLGEDVLRELVVEPDAPPDLFIVPGSAGGSA [r15_709_TrMRF]
[1]
  folding stability dG unfold: -0.141 ± 0.093 kcal/mol
[2]
  folding stability dG unfold: -0.617 ± 0.13 kcal/mol

## SAGGSAMTKKTVVTIPLPPGAEDLSPEEVERRVRDELAAEPARPDVTVEVERLPPEPVVRVTITEASAGGSA [r15_1029_JUSTAS]
[1]
  folding stability dG unfold: 0.0943 ± 0.046 kcal/mol
[2]
  folding stability dG unfold: -0.307 ± 0.2 kcal/mol

## SAGGSAMTTRATATPQPDGTVTVTVEAPGFSRTFTAPPGDLAASLAAVERELPPGEPRVVTSAAAGSAGGSA [r15_925_JUSTAS]
[1]
  folding stability dG unfold: 0.346 ± 0.059 kcal/mol
[2]
  folding stability dG unfold: -0.233 ± 0.067 kcal/mol

## SAGGSAMVIDSKEVLEDDVLVTTTAITVDPSTGIKTEDVEEKPVPLPDGTPLPPRKTTRTTPLANASAGGSA [r15_623_JUSTAS]
[1]
  folding stability dG unfold: 0.784 ± 0.025 kcal/mol
[2]
  folding stability dG unfold: 0.175 ± 0.13 kcal/mol

## SAGGSAPKIYSVEEKELPDNYRLIVFKADKSDPEFIEEIAELLPKEKVEPLSKSEDGYYVVRLPLESAGGSA [r15_386_TrMRF]
[1]
  folding stability dG unfold: 0.0639 ± 0.23 kcal/mol
[2]
  folding stability dG unfold: -0.0414 ± 0.26 kcal/mol

## SAGGSAPKRLRIKFKDPDGKTQKIKIPPGIKSINIQPNNDYVSLMIHNPEDGQSRMLPPMRVDEITSAGGSA [r15_133_TrROS]
[1]
  folding stability dG unfold: -0.899 ± 0.48 kcal/mol
[2]
  folding stability dG unfold: < -1 kcal/mol

## SAGGSAPPEVVEVPPVELPDYTVSPPRFAPEPTLRERTATPPDGPEFSVTTRIDPETGVPEVVVAASAGGSA [r15_84_JUSTAS]
[1]
  folding stability dG unfold: 0.718 ± 0.017 kcal/mol
[2]
  folding stability dG unfold: 0.211 ± 0.067 kcal/mol

## SAGGSASMKTTTVTLPLDPAQLAEAIAALREAVAPDEAAEVTFVHPHAPTSLTVTISRSDVTLNAASAGGSA [r15_257_JUSTAS]
[1]
  folding stability dG unfold: 0.706 ± 0.074 kcal/mol
[2]
  folding stability dG unfold: -0.17 ± 0.11 kcal/mol

## SAGGSASPVLVELPEGVRVELPPDTMTVTIRLPNGTEVVVPLENPEPPDPAAALARARAVVAALPESAGGSA [r15_748_JUSTAS]
[1]
  folding stability dG unfold: 0.774 ± 0.1 kcal/mol
[2]
  folding stability dG unfold: 0.185 ± 0.11 kcal/mol

## SAGGSASSEFNTDKKPPPLPKKSKVINLNIPTPPDETEEEAKKKAEEIANKLKEEGKYGEVTVKIESAGGSA [r15_450_JUSTAS]
[1]
  folding stability dG unfold: 0.756 ± 0.17 kcal/mol
[2]
  folding stability dG unfold: 0.5 ± 0.41 kcal/mol

## SAGGSASSGSMPLTKETDPLDGAGEVERVLYEDGTVVEIVTGADGKPTLRTRKVEIEPPEPLLLLRSAGGSA [r15_478_JUSTAS]
[1]
  folding stability dG unfold: -0.501 ± 0.63 kcal/mol
[2]
  folding stability dG unfold: < -1 kcal/mol

## SAGGSDLSSASFSSSPSTLPDGRSLTTYPAVTLPDGTVATLTVETDPATGAPTVTLTLGDTDIVLATSAGGS [r16_766_JUSTAS]
[1]
  folding stability dG unfold: 0.0331 ± 0.32 kcal/mol
[2]
  folding stability dG unfold: -0.474 ± 0.25 kcal/mol

## SAGGSIPAEELAAALAALPELPAAEVEVVVEERPDEVVVDVRFADPEHPRHVALLRRAERLLAEAASAGGSA [r2_3_TrMRF]
[1]
  folding stability dG unfold: 0.373 ± 0.3 kcal/mol
[2]
  folding stability dG unfold: -0.305 ± 0.22 kcal/mol

## SAGGSKEEIEKKLKELAEKLGVEVEDIEIKPLSNGKYIAVVKFKDNPNVYAVYEFDGDEIKIVEIKPSAGGS [r8_432_TrMRF]
[1]
  folding stability dG unfold: 5.04 ± 0.26 kcal/mol
[2]
  folding stability dG unfold: 5.15 ± 0.57 kcal/mol

## SAGGSMKIVKKSEDPSPPVETIEVDPNLDIEKIINELKNQPNVKVDKSTDPNSSKKTITITRPVDGSAGGSA [r2_44_JUSTAS]
[1]
  folding stability dG unfold: 0.0999 ± 0.058 kcal/mol
[2]
  folding stability dG unfold: -0.224 ± 0.086 kcal/mol

## SAGGSMLTVDYTVSPDVDLEEALAAVAEEVRAALLAETGGPVAVDVRPVSRPPDGTVRIRVDVALESAGGSA [r2_214_JUSTAS]
[1]
  folding stability dG unfold: 0.991 ± 0.028 kcal/mol
[2]
  folding stability dG unfold: 0.525 ± 0.12 kcal/mol

## SAGGSMTIDDLKGMPVKEIAKRLGPGYEVNVDPNHGTLTLQHPNYQVTINVSPKDGYVKITEVTPHSAGGSA [r2_470_TrROS]
[1]
  folding stability dG unfold: -0.808 ± 0.32 kcal/mol
[2]
  folding stability dG unfold: < -1 kcal/mol

## SAGGSRMRILNIDPESNRIRVRHPGKPFTFPVDNIEEVTIDPNDGYLTIKMKGETQTIPLDDPDAFSAGGSA [r2_48_TrROS]
[1]
  folding stability dG unfold: 0.575 ± 0.16 kcal/mol
[2]
  folding stability dG unfold: 0.0825 ± 0.18 kcal/mol

## SAGGSSLDDPSLLPGVTLTVTLPETGEVLRVPSSEVVSGPLSEAAARVRAEVAAAHPGRPWEVRAESAGGSA [r2_392_JUSTAS]
[1]
  folding stability dG unfold: -0.728 ± 0.42 kcal/mol
[2]
  folding stability dG unfold: < -1 kcal/mol

## SAGGSSLPPDVTLVEEEKVVETPDGTTIKVKTTTAVSAEGTVRRPVTETITYPEKPETIEKETEIDASAGGS [r16_563_JUSTAS]
[1]
  folding stability dG unfold: 0.405 ± 0.15 kcal/mol
[2]
  folding stability dG unfold: 0.122 ± 0.33 kcal/mol

## SAGGSSPPTTTRTFAHPDGRTTELTVPTLPDGTPVVTTTTGGTTTTLSLSQLEKLPSSWTFTSTSSSAGGSA [r2_431_JUSTAS]
[1]
  folding stability dG unfold: -0.27 ± 0.24 kcal/mol
[2]
  folding stability dG unfold: -0.971 ± 0.64 kcal/mol

## SAGGSSSTPRIKTSVSSSTTVTPLPGPTTLVTTTTTTTTTNPANGQQLSTTPTTSTTVVTPGTGAALSAGGS [r8_204_JUSTAS]
[1]
  folding stability dG unfold: 0.797 ± 0.053 kcal/mol
[2]
  folding stability dG unfold: 0.314 ± 0.12 kcal/mol
